Common to all, as to assay: ELISA on conditioned medium of HEK293F transfected with the NOTUM construct (Example 6.7)
Test [1] addresses T1, M-H-M.
T1 construct: Drawn on the sheet as mouse up to the M177 line, a human middle segment, then a mouse C-terminal part; Conditioned medium from transfected HEK293F; also called Mouse-human-mouse chimeric NOTUM
T1 single chain: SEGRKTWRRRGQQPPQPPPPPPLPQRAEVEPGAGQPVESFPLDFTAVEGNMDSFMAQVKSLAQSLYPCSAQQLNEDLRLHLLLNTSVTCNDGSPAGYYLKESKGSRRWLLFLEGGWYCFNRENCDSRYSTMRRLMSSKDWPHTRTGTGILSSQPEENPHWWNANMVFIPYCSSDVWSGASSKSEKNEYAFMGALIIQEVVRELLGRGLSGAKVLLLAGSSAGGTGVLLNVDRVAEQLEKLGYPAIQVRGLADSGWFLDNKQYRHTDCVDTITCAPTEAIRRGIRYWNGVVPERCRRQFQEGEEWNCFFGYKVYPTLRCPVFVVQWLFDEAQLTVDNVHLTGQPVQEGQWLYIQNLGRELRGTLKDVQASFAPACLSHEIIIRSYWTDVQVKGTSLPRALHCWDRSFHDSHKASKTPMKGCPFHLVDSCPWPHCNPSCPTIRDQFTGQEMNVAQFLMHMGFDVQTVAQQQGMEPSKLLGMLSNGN
An excerpt:
(§1) The sequences of those proteins are shown in Section 7 (Table of Sequences). The conditioned media were used in ELISA format to determine antibody specificity. […] Within this region, mouse and human NOTUM differ at five positions (R115K, D141S. R150K, R154H, and Y171H, based on the human sequence numbering). Human NOTUM point mutants were generated by transient transfection of constructs expressing human NOTUM with the mouse amino acid at each of these five positions and the point mutants were all shown to be functional in the OPTS assay.

Test [2] deals with T2, H(S232A).
T2 construct: The catalytic triad serine is drawn as A on the sheet; also called Human NOTUM S232A
T2 single chain: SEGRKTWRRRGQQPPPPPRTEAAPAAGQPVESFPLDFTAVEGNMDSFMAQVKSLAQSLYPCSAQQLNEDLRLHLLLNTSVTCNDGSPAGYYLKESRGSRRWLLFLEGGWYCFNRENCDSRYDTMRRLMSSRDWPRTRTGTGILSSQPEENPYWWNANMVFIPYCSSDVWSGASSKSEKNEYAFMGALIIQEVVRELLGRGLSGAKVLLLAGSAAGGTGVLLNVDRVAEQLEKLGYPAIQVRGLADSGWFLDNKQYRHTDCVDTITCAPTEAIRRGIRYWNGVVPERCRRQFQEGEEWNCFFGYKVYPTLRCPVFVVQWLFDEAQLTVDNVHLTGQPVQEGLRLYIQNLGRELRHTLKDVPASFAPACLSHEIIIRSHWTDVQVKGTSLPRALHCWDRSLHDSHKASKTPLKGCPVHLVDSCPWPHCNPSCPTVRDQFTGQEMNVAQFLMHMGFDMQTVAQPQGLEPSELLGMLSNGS
Source text: as §1

The target of test [3] is T3, H-M-H.
T3 construct: Drawn on the sheet as human up to the M177 line, a mouse middle segment, then a human C-terminal part; Conditioned medium from transfected HEK293F; also called Human-mouse-human chimeric NOTUM
T3 single chain: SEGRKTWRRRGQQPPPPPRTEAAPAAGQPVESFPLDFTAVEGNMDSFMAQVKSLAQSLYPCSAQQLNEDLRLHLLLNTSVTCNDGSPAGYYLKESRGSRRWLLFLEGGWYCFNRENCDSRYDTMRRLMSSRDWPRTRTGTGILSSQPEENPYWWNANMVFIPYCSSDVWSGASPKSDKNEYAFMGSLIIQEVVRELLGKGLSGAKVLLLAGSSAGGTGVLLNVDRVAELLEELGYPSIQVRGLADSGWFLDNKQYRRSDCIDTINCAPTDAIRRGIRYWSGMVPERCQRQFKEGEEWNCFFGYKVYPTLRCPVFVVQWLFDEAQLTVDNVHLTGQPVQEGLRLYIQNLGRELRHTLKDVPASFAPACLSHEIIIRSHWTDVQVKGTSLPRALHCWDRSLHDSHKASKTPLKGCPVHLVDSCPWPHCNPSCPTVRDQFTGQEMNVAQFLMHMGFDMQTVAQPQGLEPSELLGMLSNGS
Source text: as §1

Test [4] addresses T4, H(N96D).
T4 construct: Human NOTUM with N96D, marked inside the Q47-M177 box on the sheet; also called Human NOTUM N96D
T4 single chain: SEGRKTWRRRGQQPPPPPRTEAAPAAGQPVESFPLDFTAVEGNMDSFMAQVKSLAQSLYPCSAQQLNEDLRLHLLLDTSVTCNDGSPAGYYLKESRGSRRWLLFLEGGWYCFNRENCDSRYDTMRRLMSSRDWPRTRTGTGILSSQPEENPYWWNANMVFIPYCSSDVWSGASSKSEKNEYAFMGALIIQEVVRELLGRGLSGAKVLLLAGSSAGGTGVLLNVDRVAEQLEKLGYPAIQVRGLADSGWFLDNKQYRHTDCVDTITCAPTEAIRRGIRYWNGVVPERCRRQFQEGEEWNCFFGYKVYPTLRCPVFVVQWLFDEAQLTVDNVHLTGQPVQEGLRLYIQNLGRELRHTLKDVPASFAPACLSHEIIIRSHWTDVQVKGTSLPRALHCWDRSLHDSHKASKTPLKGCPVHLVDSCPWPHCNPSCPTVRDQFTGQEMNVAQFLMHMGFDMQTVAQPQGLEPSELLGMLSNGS
Source text: as §1

B1: MAb 1.802 (antibody, V domains shown)
VH: EVQLVESGGGLVKPGGSLKLSCAASGFTFSDYGMHWFRQAPEKGLEWVAYISSGSRTVYYADTVKGRFTISRDNAKNTLSLQMTSLRSEDTAMYYCARKHYNGGYFDVWGTGTTVTVSS
VL: DIVLTQSPASLAVSLGQRATISCRASKIVSTSGYSYMHWYQQKPGQPPKLLIYLASNLESGVPARFSGSGSGTDFTLNIHPVEEEDAATYYCQHSRELPPTFGSGTKLEIKR
notes: Mouse monoclonal antibody from Campaign 1 (raised against human NOTUM), IgG1
For B1, the binding result in test [1] was “no binding”; in test [2], “binds”; in test [3], “binds”; in test [4] it was “binds”.

B2: MAb 1.815 (antibody, IgG1, V domains shown)
VH: DVQLLESGGGLVQPGGSRKLSCAASGFTFSDFGMHWVRQAPEKGLEWVAYSSSGGTTVYYADTVKGRLTLSRDNSKNTLFLEMTSLRSEDTAMYYCARASYDGGYFDCWGQGTSLTVSS
VL: DIVLTQSPASLAVSLGQRATISCRASKSVSTSGYSYIHWYQQKPGQPPKLLIYLASDLESGVPARFSGSGSGAAFTLNIHPVEEEDAATYYCHHSRELPFTFGSGTKLEIKR
notes: Mouse monoclonal antibody from Campaign 1, IgG1
For B2, the binding result is given as “no binding” in test [1], “binds” in test [2], “binds” in test [3] and “binds” in test [4].

B3: MAb 1.846 (antibody, IgG2b, V domains shown)
VH: EVQLVESGGDLVKPGGSLKLSCAASGFTFSDYGMHWLRQAPEKGLEWVAYISSGSTTLSYANTMKGRFTISRDNAKKTLSLQMTSLRSEDTAIYYCARKNYNGGYFDVWGTGTTVTVSS
VL: DIVLTQSPASLVVSLGQRATISCRASKSVSESGYSYMHWYQQKPGQPPKLLIYLASNLESGVPARFSGSGSGTDFTLNIHPVEEGDATTYYCQHSRVLPPTFGSGTKLEIKR
notes: Mouse monoclonal antibody from Campaign 1, IgG2b
Take B3: the binding result in test [1] is reported as “no binding”; in test [2], “binds”; in test [3], “binds”; in test [4] it was “binds”.

Values taken from US20130302346A1 (LEXICON PHARMACEUTICALS, published 2013).
